Results: the supplement of paper PMC12042874
± gives the uncertainty stated by the source.

test: amyloid nucleation score (Sup35N fusion, yeast selection) (log enrichment); library NNK2; higher = more nucleation; inactive = no reads after selection
In short: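 Plasmid inserts were Illumina-sequenced at input and output from psi-negative yeast expressing Sup35N fused to peptides of 20 random codons. The yeast were induced with 100 μM copper sulfate for 24 hours and grown 7 days at 30°C on medium lacking adenine and uracil, and sequences with under 100 input reads were excluded. Nucleation score is the DiMSum log enrichment of output over input reads, centred on the mode score of non-aggregating sequences.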

**Q.** For MMFNSLCSYWTTDYFATPDL, which amyloid nucleation score is on record?
**A.** 6.778 ± 0.062

**Q.** For NEIARILEVRIGVEGYGGIF, which amyloid nucleation score is on record?
**A.** -0.722 ± 0.3

**Q.** With YVLSSLRICYTMLSM as the substance, how does the amyloid nucleation score read?
**A.** inactive

**Q.** Which amyloid nucleation score does the source give for SYFKSTSARCFSFYLCCAKT here?
**A.** 6.224 ± 0.05

**Q.** For IRYLYAMVLMDVNDGRYYCK, which amyloid nucleation score is on record?
**A.** -1.54 ± 1

**Q.** For YSMPRSN, which amyloid nucleation score is on record?
**A.** -0.548 ± 0.45

**Q.** Which amyloid nucleation score does the source give for CIKALRVYFYEGFTSTR here?
**A.** -1.89 ± 1.1

**Q.** For VNVCTYTWLHVINERFTFQW, which amyloid nucleation score is on record?
**A.** 6.192 ± 0.045

**Q.** With SVNILDTWDKVAPTKRPLES as the substance, how does the amyloid nucleation score read?
**A.** 0.266 ± 0.49

**Q.** With CYIFYS as the substance, how does the amyloid nucleation score read?
**A.** inactive

**Q.** With MYSISVNMKNSFRNL as the substance, how does the amyloid nucleation score read?
**A.** 0.566 ± 0.66

**Q.** With VMTFMVTRTD as the substance, how does the amyloid nucleation score read?
**A.** 6.111 ± 0.037

**Q.** Which amyloid nucleation score does the source give for MTYYRAYFAYLWVVRLWL here?
**A.** 0.029 ± 0.32

**Q.** For WGHLVWGNTRCLGG, which amyloid nucleation score is on record?
**A.** 0.016 ± 1.1

**Q.** With GHCFISEFLGRRVA as the substance, how does the amyloid nucleation score read?
**A.** 2.36 ± 0.08

**Q.** Which amyloid nucleation score does the source give for PSIRWNVIIAMSYLQS here?
**A.** 1.89 ± 0.16

**Q.** Which amyloid nucleation score does the source give for FYWVLMNYGQLCCWFW here?
**A.** 1.79 ± 0.2

**Q.** With KVISSVSEPLSKKEDYE as the substance, how does the amyloid nucleation score read?
**A.** -0.706 ± 0.3

**Q.** For STWKNDHTHSCASWAKVCIT, which amyloid nucleation score is on record?
**A.** -0.138 ± 0.34

**Q.** With FLSCQTYRKNQADNADASSI as the substance, how does the amyloid nucleation score read?
**A.** -0.076 ± 0.56

**Q.** With DSGCKFAAPCSVYPLFLFDM as the substance, how does the amyloid nucleation score read?
**A.** -0.788 ± 1.1

**Q.** Which amyloid nucleation score does the source give for GAPSHFCEFCSYSAAKEEYE here?
**A.** inactive

**Q.** With FDTASTVDSVRIRKTKSSQ as the substance, how does the amyloid nucleation score read?
**A.** inactive

**Q.** Which amyloid nucleation score does the source give for LCYWPYDSVYLLTRFTVNGF here?
**A.** -0.349 ± 0.25

**Q.** With NLVFCFDFQMSAPISGEMQY as the substance, how does the amyloid nucleation score read?
**A.** 4.87 ± 0.098

**Q.** For TLSSKLFCVKASVRSMGPVV, which amyloid nucleation score is on record?
**A.** 7.723 ± 0.047

**Q.** Which amyloid nucleation score does the source give for HQVFPAKAGLPALVYLLGFY here?
**A.** 0.602 ± 0.81

**Q.** With ASAEQRNLCIEFASDQLYVI as the substance, how does the amyloid nucleation score read?
**A.** -0.478 ± 0.38

**Q.** For DVSNLWFTNFCGFWGKYVVK, which amyloid nucleation score is on record?
**A.** inactive

**Q.** For GDMLILSENDQRYCGPVDL, which amyloid nucleation score is on record?
**A.** 0.107 ± 0.45

**Q.** With IYQPCCCV as the substance, how does the amyloid nucleation score read?
**A.** 0.76 ± 0.51

**Q.** Which amyloid nucleation score does the source give for MADTPSNFKYYLPKLFKG here?
**A.** inactive

**Q.** With SMLEDRYHSALTENRRDWKQ as the substance, how does the amyloid nucleation score read?
**A.** 0.564 ± 0.28

**Q.** With MATDDIN as the substance, how does the amyloid nucleation score read?
**A.** -0.359 ± 0.79

**Q.** For MDLVCVAKSDVQACTYSAPV, which amyloid nucleation score is on record?
**A.** 1.1 ± 0.39

**Q.** With FDSEQLIRYD as the substance, how does the amyloid nucleation score read?
**A.** -0.909 ± 1.1

**Q.** For VSNRVLEMVSKEVASAKNQL, which amyloid nucleation score is on record?
**A.** 0.288 ± 0.34

**Q.** For LIGIARSRVYRVKECFVHGL, which amyloid nucleation score is on record?
**A.** 0.519 ± 0.43

**Q.** Which amyloid nucleation score does the source give for SLNILDCFTCGYMTSDISVA here?
**A.** -0.674 ± 0.32

**Q.** Which amyloid nucleation score does the source give for LAYLSLICFCVDSPTQVGLM here?
**A.** 10.11 ± 0.038

**Q.** For RFSCAEYVPVMT, which amyloid nucleation score is on record?
**A.** 0.298 ± 0.56

**Q.** With DNYITLIAMKGYKTAYSTVS as the substance, how does the amyloid nucleation score read?
**A.** -0.116 ± 0.61

**Q.** For AEAWGVFYHWHDT, which amyloid nucleation score is on record?
**A.** -0.493 ± 0.53

**Q.** Which amyloid nucleation score does the source give for IVFFTECSYSLFRWIMNNVW here?
**A.** -1.4 ± 0.39

**Q.** For TLNLDFFELSMPGDFSDLVS, which amyloid nucleation score is on record?
**A.** inactive

**Q.** Which amyloid nucleation score does the source give for QCGSSMFRMPVLNWTA here?
**A.** 0.734 ± 0.81

**Q.** With SLLYQQDGCNLVVFYQFLV as the substance, how does the amyloid nucleation score read?
**A.** 2.52 ± 0.13

**Q.** With GYCETNFGGCVPDWMEMLQR as the substance, how does the amyloid nucleation score read?
**A.** 6.67 ± 0.061

**Q.** For IFHLGLRR, which amyloid nucleation score is on record?
**A.** 5.706 ± 0.053

**Q.** With PIRVSSSVVSWYYFGNSRIW as the substance, how does the amyloid nucleation score read?
**A.** -1.09 ± 0.62

**Q.** With ATQRHVSTGKSGSN as the substance, how does the amyloid nucleation score read?
**A.** 0.606 ± 0.8

**Q.** For FSNTYHFCISNYMWLNEVLM, which amyloid nucleation score is on record?
**A.** 1.36 ± 0.19

**Q.** For FHAYTGCVWVTCQYGWRRDT, which amyloid nucleation score is on record?
**A.** 1.9 ± 0.15

**Q.** Which amyloid nucleation score does the source give for CLSVCCEDFNRSLTHYASSL here?
**A.** -0.743 ± 0.76

**Q.** For FASFVSIGRVVLLYSPSCYQ, which amyloid nucleation score is on record?
**A.** 5.71 ± 0.059

**Q.** For DGKFRRVTLRGPLA, which amyloid nucleation score is on record?
**A.** 0.554 ± 0.56

**Q.** For STVTVGHNSHVCAFIF, which amyloid nucleation score is on record?
**A.** -0.326 ± 0.54

**Q.** For YFRLLISCQNRLLVRKLRAA, which amyloid nucleation score is on record?
**A.** -0.021 ± 0.79

**Q.** For VKFCVWCGD, which amyloid nucleation score is on record?
**A.** 7.039 ± 0.06

**Q.** For TVSRIMLGNGKYFKHVL, which amyloid nucleation score is on record?
**A.** 2.3 ± 0.064

**Q.** For VRVGVWSMTFG, which amyloid nucleation score is on record?
**A.** -0.52 ± 0.78

**Q.** With QSVYFILNNFKWFPGSTGM as the substance, how does the amyloid nucleation score read?
**A.** 7.062 ± 0.048

**Q.** With DKTVIPLCFLHFNRT as the substance, how does the amyloid nucleation score read?
**A.** -1.35 ± 0.78

**Q.** Which amyloid nucleation score does the source give for LRFCSSSVISGLQFSSRVVE here?
**A.** -0.029 ± 1.1

**Q.** With YLASFVFGIVNTYSAVALS as the substance, how does the amyloid nucleation score read?
**A.** 0.552 ± 0.66

**Q.** With IHKETGLEIVARRKVHFDGG as the substance, how does the amyloid nucleation score read?
**A.** 0.524 ± 0.26

**Q.** For VMVGLALYLKARGSNVDCGL, which amyloid nucleation score is on record?
**A.** 3 ± 0.17

**Q.** Which amyloid nucleation score does the source give for YSLMCQFHSSPISFFLCWLP here?
**A.** 8.157 ± 0.071

**Q.** With TWNISILHCI as the substance, how does the amyloid nucleation score read?
**A.** 4.84 ± 0.084

**Q.** For LDRDVVYTCVDCVFGVGILK, which amyloid nucleation score is on record?
**A.** -1.19 ± 0.75

**Q.** For AFSVFSWSFQWQTSCWQICE, which amyloid nucleation score is on record?
**A.** 5.022 ± 0.038

**Q.** With NLHFSLNCMIFQPTASRLKH as the substance, how does the amyloid nucleation score read?
**A.** 6.824 ± 0.031

**Q.** With MFCGDSCSTVPCCVCICFLY as the substance, how does the amyloid nucleation score read?
**A.** 5.02 ± 0.058

**Q.** Which amyloid nucleation score does the source give for EACLNGAA here?
**A.** 0.638 ± 0.18

**Q.** Which amyloid nucleation score does the source give for FTDRDLGNLTYDDRFDICNY here?
**A.** -1.75 ± 0.76

**Q.** Which amyloid nucleation score does the source give for LYRFSSLLWLSVSSSCDIV here?
**A.** inactive

**Q.** With NYDGCRWWW as the substance, how does the amyloid nucleation score read?
**A.** inactive

**Q.** With RRAWGFLVMRVGTDPMMTGI as the substance, how does the amyloid nucleation score read?
**A.** 0.196 ± 0.37

**Q.** With LGTSRGNDVENRAYSRWVKV as the substance, how does the amyloid nucleation score read?
**A.** 0.524 ± 0.81

**Q.** With RRIGFDAPDVSRYVALLYWD as the substance, how does the amyloid nucleation score read?
**A.** -0.106 ± 0.32

**Q.** With PYQMGSYKLACVQKRPWV as the substance, how does the amyloid nucleation score read?
**A.** 0.929 ± 0.58

**Q.** For PIGHLFQET, which amyloid nucleation score is on record?
**A.** 0.92 ± 0.24

**Q.** With VHSLFVNIRMLCTDGFASTG as the substance, how does the amyloid nucleation score read?
**A.** 4.479 ± 0.038

**Q.** With YCGFVFPAWGDLLTNGSPAA as the substance, how does the amyloid nucleation score read?
**A.** 0.092 ± 0.29
